Assays:
Details in all cases: 20 nM; 72 h
MCF10A [1] = assay: 5+ nucleoli phenotype percent effect (relative to siNT 0% and siKIF11 100%); higher = more cells with five or more nucleoli
Protocol: (§1)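 After 72 h, cells were fixed and stained with Hoechst and anti-fibrillarin, and nucleoli per nucleus were counted with CellProfiler. Values are plate-adjusted percent effect for the one-nucleolus and 5+ nucleoli phenotypes, normalised to siNT (0%) and to the positive controls siNOL11 or siKIF11 (100%), as the mean of biological triplicates. Percent viability is the nuclei count relative to siNT.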

MCF10A [2] = assay: one-nucleolus phenotype percent effect (relative to siNT 0% and siNOL11 100%); higher = more cells with one nucleolus (ribosome biogenesis inhibition)
Protocol: as §1

MCF10A [3] = assay: percent viability (nuclei count relative to siNT); higher = more viable cells
Protocol: as §1

Sequence	5+ nucleoli phenotype percent effect (MCF10A [1]) [%]	one-nucleolus phenotype percent effect (MCF10A [2]) [%]	percent viability (MCF10A [3]) [%]
CCUGUUCUCCAUUACUUGGCUC [hsa-miR-26b-3p]	-23.3	7.43	63.1
CCUGUUGAAGUGUAAUCCCCA [hsa-miR-1267]	39.6	-18.3	114
CCUUCACUGUGACUCUGCUGCAG [hsa-miR-6837-3p]	50.7	-30.8	180
CGAAAACAGCAAUUACCUUUGC [hsa-miR-570-3p]	34.2	-22.6	164
CGAAUCAUUAUUUGCUGCUCUA [hsa-miR-15b-3p]	28.9	-19.7	131
CGACCUCGGCGACCCCUCACU [hsa-miR-6790-3p]	-13.8	8.29	45.6
CGAGCCUCAAGCAAGGGACUU [hsa-miR-2114-3p]	-15.9	19.8	32.7
CGAGGGCAUUUCAUGAUGCAGGC [hsa-miR-3616-3p]	-22	43.6	24.6
CGAGGGGUAGAAGAGCACAGGGG [hsa-miR-6738-5p]	26.9	-8.33	75.7
CGCACCUGCCUCUCACCCACAG [hsa-miR-6804-3p]	33.2	-33.9	74.2
CGCAGACAAUGCCUACUGGCCUA [hsa-miR-3166]	-21.5	6.38	21.3
CGCAGGGCCCUGGCGCAGGCAU [hsa-miR-6836-5p]	-6.59	28.5	37.7
CGCAGGGGCCGGGUGCUCACCG [hsa-miR-1909-3p]	13.4	20.6	26.7
CGCAUCCCCUAGGGCAUUGGUGU [hsa-miR-324-5p]	21.4	-15.6	76.6
CGCCCCUCCUGCCCCCACAG [hsa-miR-4749-3p]	64.3	-18.4	115
CGCCGCGCGCAUCGGCUCAGC [hsa-miR-6869-3p]	-29.2	4.08	28.8
CGCCUCUUCAGCGCUGUCUUCC [hsa-miR-2682-3p]	24	-7.1	75.9
CGCCUGCCCAGCCCUCCUGCU [hsa-miR-4763-5p]	-11.3	11.6	38.1
CGCGCCUGCAGGAACUGGUAGA [hsa-miR-6720-3p]	71.3	-13.6	57.7
CGCGCGGCCGUGCUCGGAGCAG [hsa-miR-4479]	-37.9	54.5	34.8

Sequence	5+ nucleoli phenotype percent effect (MCF10A [1]) [%]	one-nucleolus phenotype percent effect (MCF10A [2]) [%]	percent viability (MCF10A [3]) [%]
CGCGGGCGCUCCUGGCCGCCGCC [hsa-miR-4767]	26.9	-12.9	58.8
CGCGGGUCGGGGUCUGCAGG [hsa-miR-3621]	-3.13	-5.2	57.8
CGCUCUAGGCACCGCAGCA [hsa-miR-1301-5p]	95.7	-24.1	77.5
CGCUUUGCUCAGCCAGUGUAG [hsa-miR-1251-3p]	-13.1	18.6	76.2
CGGAUGAGCAAAGAAAGUGGUU [hsa-miR-1255b-5p]	45.2	-12.5	64.1
CGGCAACAAGAAACUGCCUGAG [hsa-miR-196a-3p]	-32.7	37.8	25.1
CGGCCCCACGCACCAGGGUAAGA [hsa-miR-874-5p]	38.1	-19.8	85.9
CGGCCCGGGCUGCUGCUGUUCCU [hsa-miR-1538]	45	-27.8	144
CGGCGCCCGUGUCUCCUCCAG [hsa-miR-6789-3p]	32.6	-9.93	59.9
CGGCGCGACCGGCCCGGGG [hsa-miR-4634]	24.7	-14.3	71.2
CGGCUCUGGGUCUGUGGGGA [hsa-miR-760]	-2.61	7.07	53
CGGCUGGAGGUGUGAGGA [hsa-miR-3652]	-23.6	44.8	24
CGGGACUGUAGAGGGCAUGAGC [hsa-miR-8052]	28.9	4.6	42.4
CGGGAGCUGGGGUCUGCAGGU [hsa-miR-6726-5p]	58.1	-17.2	73
CGGGCAUGCUGGGAGAGACUUU [hsa-miR-6862-5p]	-13	31.7	21.6
CGGGCCGGAGGUCAAGGGCGU [hsa-miR-6781-5p]	54.4	-2.25	46.3
CGGGCGUGGUGGUGGGGG [hsa-miR-1268a]	44.8	-19.1	96.6
CGGGCGUGGUGGUGGGGGUG [hsa-miR-1268b]	35.6	8.5	36.5
CGGGCUGUCCGGAGGGGUCGGCU [hsa-miR-4741]	42.5	-21.4	65.1
CGGGGAGAGAACGCAGUGACGU [hsa-miR-3175]	-3.98	5.01	33.4

Sequence	5+ nucleoli phenotype percent effect (MCF10A [1]) [%]	one-nucleolus phenotype percent effect (MCF10A [2]) [%]	percent viability (MCF10A [3]) [%]
CGGGGCAGCUCAGUACAGGAU [hsa-miR-486-3p]	-5.42	47.2	10.1
CGGGGCCAGAGCAGAGAGC [hsa-miR-6845-5p]	11.6	9.59	53.6
CGGGGCCAUGGAGCAGCCUGUGU [hsa-miR-6762-5p]	28.2	-11.4	86.4
CGGGGCCGUAGCACUGUCUGAGA [hsa-miR-128-1-5p]	21.2	22.5	26.1
CGGGGCGGCAGGGGCCUC [hsa-miR-3196]	-24.6	66	13.7
CGGGGGCGGGGCCGAAGCGCG [hsa-miR-1237-5p]	45.4	-22	85.4
CGGGGUCGGCGGCGACGUG [hsa-miR-7704]	9.03	-0.45	38.3
CGGGGUGGGUGAGGUCGGGC [hsa-miR-4651]	-1.6	2.27	33.5
CGGGGUUUUGAGGGCGAGAUGA [hsa-miR-193b-5p]	-32.1	25.4	46.7
CGGGUAGAGAGGGCAGUGGGAGG [hsa-miR-197-5p]	48.2	-25.5	44.8
CGGGUGGAUCACGAUGCAAUUU [hsa-miR-363-5p]	161	-21.2	4.57
CGGGUGGGAGCAGAUCUUAUUGAG [hsa-miR-6766-5p]	56.1	-20.9	76.6
CGGUGAGCGCUCGCUGGC [hsa-miR-4792]	-30.2	21.1	36.6
CGGUGGACUGGAGUGGGUGG [hsa-miR-8071]	-15.7	22.4	9.26
CGUCAACACUUGCUGGUUUCCU [hsa-miR-505-3p]	-7.84	22.4	33.8
CGUCCCACCCCCCACUCCUGU [hsa-miR-4433-5p]	25.6	-1.75	40.9
CGUCCCGGGGCUGCGCGAGGCA [hsa-miR-4449]	-7.62	-6.92	75.7
CGUCUUACCCAGCAGUGUUUGG [hsa-miR-200c-5p]	-1.15	-5.6	79
CGUGCCACCCUUUUCCCCAG [hsa-miR-1227-3p]	-2.5	6.65	93.4
